{"source": "the DeepSol protein solubility set"}
{"experiment": "soluble on expression in E. coli; label from the status in PepcDB or PDB records"}
{"sequence": "MRPCIVIPIYNHKDVIGLTVARLVTHGLPIFIVDDGSDAPTQAVLAALAGQHAGCVTLLRLPVNGGKGAAVMAGLRAARSDGFTHALQIDADGQHDAADVPTFMDAARDHPEAVILGQPVYDATVPKARLYGRYLTHAWVWIETLSFDIRDSMCGFRVYPLALACALIDEVALPTRMDFDIEILVRLHWRRTRFVAIPTRVTYAADGVSHFDVLWDNIRISQSHARLVAGMLVRLPLLLANKARPRQRADQAAAGKAHWWRIAERGSQLGMRLLALSCRLLGTRITALWLYPIVAYFLLTGRAARQASRQYFERLAAASAQDRTPAPGWRSAYRHMIAFAQSGLDKLAAWSGHVSPHRVRFDDPAPFEALMASGRGALVIGAHLGNLEMTRALATRHGQVKVTAVVYIEHARRFNRVLAGAHPEFATHLLEVSDFGPATAMRMQERIDAGELLVIVGDRVPATEMGRTVEATFLGAPARFAQGPYILAHALGCPVYLFFCLKTRQDYTLYFEPFAERIELPRHARATHLATLAQRYASRLEHHCRKAPFQWFNFFDFWARPKKDAHGLEHHHHHH", "soluble on expression in E. coli": "not soluble"}
{"sequence": "SMAAAAVVQIPAGATFLETFKKSFVDVPIDAEKGNAISTAEFLEAAESLTTMFDVLGSIAFSPVKTDMLGNVEKIRKRMLAAPLESQNIQDLVRNELKTKSHTATEGLLWLVRGLEFTCIALSKNIGSTEELADSFRGSYRVTLKPHHSFLVKPIFSAAMSACPYRKDFYAKLGDDEQKVQEELREYLVALDKIVNILKRFLESKEAKW", "soluble on expression in E. coli": "soluble"}
{"sequence": "GPLGSDHVLHVTFPKEWKTSDLYQLFSAFGNIQISWIDDTSAFVSLSQPEQVKIAVNTSKYAESYRIQTYAEYMGRKQEEKQIKRKWTEDSWKEADSKRLN", "soluble on expression in E. coli": "soluble"}
{"sequence": "MAHHHHHHMLPFSYRVLMRGVSAVSGALSVALQHRALAGTTRSFSSSRPVWLAPAAPTKQAPPAMGGDTDAEETHPDFQPRMVSSDLAQDEIAMIKKDIDDTIRDEDVVVFIKGVPEAPMCAFSKRMIDVMEALGVEYTSFDVLAHPVVRSYVKEVSEWPTIPQLFVKGEFAGGVDIILKMAESGDLQMLLDQKSIKHRDTKP", "soluble on expression in E. coli": "soluble"}
{"sequence": "MKNNNLSDARKEKGLTQQELAEKLQVRKSTVSNWETGYSSPGISTAIQTAIILDKDVSFLFGNKVQETHTRVRD", "soluble on expression in E. coli": "not soluble"}
{"sequence": "YMYKKYDILKGDKSERVLDRRFITNLCMNGVPMGLQYSITAIGSTILQAAVNTLGSTYVAAMTAGSKMFNFTCCPFDALGSTMATYAGQNVGAAKIKRLGQGVR", "soluble on expression in E. coli": "not soluble"}
{"sequence": "MMLYFITFREARVLLKSRDLALINVDLMKTGKKIRVRVSKDYVEFPDGSRVKKEIIKRIAEDEGNVYFVRDGEVFKAAIAGEHFYKLVPTIPPTIEINGIRMHRTKGTDPLKDTIAKVNTVKPREGEVVLDTCMGLGYTAIESAKRGARVITIEKDPNVIELAKINPWSRELFESPKIKILQGDSFDLIKKFEDESFDVIIHDPPRFSLAGELYSEEFYMEMFRVLKPGGRLFHYVGNPGKRYRGLDLQKGVMERLRRVGFMKVRRVQEALGVFALKPSLE", "soluble on expression in E. coli": "soluble"}
{"sequence": "MKKLLFFILILFGVLSVQSLANGCSAQICTCPGGGYVTTGQYCPVYNNNTPSQPVLTKWYAFSYDKNKNIYGVGTGYDKKTAQNEALKNCGTSECKIEKSQKIPGGISLAAVSSNGVMVTYSSFGSSTWEQYEKRIDNLIKKCKAKGGSNCKLVFDSAYLYRKDKNLGY", "soluble on expression in E. coli": "not soluble"}
{"sequence": "MLPANEIKGVLAFLREAERLKSVIRSGYTSTGRPESTAEHTWRLCLMAMLLADGLGDIDVARLLKICIVHDLGEALHGDVPAVAQVEGDDRAARERADIETLTQSLDDKRRAELLGLWHDYETGASPEGRLAKGLDKLETILQHTQGLNPADFDYAFNLDYGARHTAVHPLVSAIRAELDNDTRARMALQQASGAPH", "soluble on expression in E. coli": "not soluble"}
{"sequence": "MAKVPDLFEDLKNCYSENEDYSSAIDHLSLNQKSFYDASYGSLHETCTDQFVSLRTSETSKMSNFTFKESRVTVSATSSNGKILKKRRLSFSETFTEDDLQSITHDLEETIQPRSAPYTYQSDLRYKLMKLVRQKFVMNDSLNQTIYQDVDKHYLSTTWLNDLQQEVKFDMYAYSSGGDDSKYPVTLKISDSQLFVSAQGEDQPVLLKELPETPKLITGSETDLIFFWKSINSKNYFTSAAYPELFIATKEQSRVHLARGLPSMTDFQIS", "soluble on expression in E. coli": "soluble"}
{"sequence": "MTDVPALEIKNLHKTFGQNEVLKGISLQAQKGDVISIIGSSGSGKSTFLRCINLLETPTAGEIWVKGELIQMKTTRQGTVQPAKEKQVQRIRSRLAMVFQSFNLWSHMTVLENVIEAPVHVLGVPKAQAIEQAERLLRKVGLYERKDYYPGHLSGGQQQRAAIARALAVEPEVMLFDEPTSALDPELVGEVLGVMRDLAEEGRTMLVVTHEMAFARDVSNHVMFLHQGKVEEQGKPEKLFKNPDSERLKQFISSIY", "soluble on expression in E. coli": "not soluble"}
{"sequence": "MQKVEGIIFDMDGVLFDSERISLEFWMETFEKYGYTMTKEIYTSVMGRNRKGIIEGLTDIYDSSVPIIDLYDEKTKNMIEFMERKGAPIKLGVNELISFLKENGYKMAVATSTKRERAVKRLAKANLKDYFDAIVCGDDVVNSKPNPEIFLKAAKKINVNPKNCIVIEDSPMGVEAAYNGGIRCINVPDLKEPDEQIKSQSHKILENLLEVREYLKSLNSKECHNL", "soluble on expression in E. coli": "not soluble"}
{"sequence": "QPAHSLWLDLTQGEEALLKGMKEMHRRNARLALKRVALSVEGEEAFAEFYRLFTETNRRARLLQHDEAYYRAVLKEMNQPLGEAFLALARKDGEALAAGLFVAFAGKVAYLYGGSTRKHPEAKAPMGMHLAAIRHGMARGYRVYDLWGIPKNPRGSHAEGIHRFKEGFGGQRVQFPA", "soluble on expression in E. coli": "not soluble"}
{"sequence": "MLALSRGRYLARPAAGLEDLRRAQELRWLAFHARRAGSGASGLDADRFDGACSHMLIEEAESGALVGCFRFLTFASGREIGRSYSAQFYELSALEGFAGPMVEMGRFCIHPDRRDPDILRVAWGALTQHVDRAGIEMLFGCSSFHGTEPEAYLDTFAMLKERHLAPPRWLPRVKAASVYRFAQRLARREPDARRAMLQMPPLLRTYLMMGGWVSDHAVVDREMDTLHVFTGLEIGAIPARRARALRAVAG", "soluble on expression in E. coli": "not soluble"}
{"sequence": "MSLRSTAVLALLLCAGQVFALPVNSPMTKGDTKVMKCVLEVISDSLSKPSPMPVSPECLETLQGDERILSILRHQNLLKELQDLALQGAKERAQQQQEQQHSSFEDELSEVFENQSPDAKHRDAAAEVPSRDTMEKRKDSDKGQQDGFEATTEGPRPQAFPEPNEGHHHHHH", "soluble on expression in E. coli": "soluble"}
{"sequence": "MAHHHHHHMEPYASPAAVPPPHVVYDALSKAQKAAPQLRPIPAFEVYKVAREEELAAYRMLCRVLFMHHGTPLPKAQQRILDDMGEDLCIGQTRQGLEKEMAEQDKVLQGIRKSGVLRRRGDFTDGVEEMTVEDYLAEAPKDDGNGLFMPTSKVRRVDGADSGATRATVIAAAAGLGAKRKGNVHAAVSKLAKEAETAGKSLLYASSAQEEQQLIQVLQQKRELLVALREELTEA", "soluble on expression in E. coli": "not soluble"}
{"sequence": "MEEHPRAWIISVGNELLIGRTINTNAAWLGSRLTLLGFEVERVVTVPDRVEDIAEEVGRALGRARVVITTGGLGPTYDDVTLQGVAMALGRGLKLHPGALEMVRRFYSKRGLGLTEDRVKMAMLPDGAEPLENPVGAAPGAVVEARGSLVASLPGVPSEMEAMFEKALRPLLEEIAPPGAVVECGIAVVGVPESSLAPYIKEASRVSPRVYVKSHPQGSEIGKPLVRVRVLARASTLEEARAEALKALEKVRRGVEELGGSISEEDSC", "soluble on expression in E. coli": "soluble"}
{"sequence": "MSLKSHRYMEVSFTKYRINLKYSFGISRSSNNYYDVAFVFIKDKGIIGRGEAAPSKRYGESIDYIIKLLESGISLPKNSYDKESVWKHVKPQLGGIKSLEAAFNMAIWDWWGQKQKKPVYELLNIKVNNLPKTSFTIAIGNMNEIERKIEEAKPYSILKVKLGTPKNDKKIITEIRKLTDKLIRVDANEGWDLDMAIKMSKWLADRNVEFIEQPFPASKIDQTSILKKKSPLDIFADENSINSNDIPSLEGVFDGINIKLMKCGSIEEGYKMIKLAREFDLKIMLGCMVESSIEGHHHHHH", "soluble on expression in E. coli": "soluble"}
{"sequence": "HGNQLTAYTLRLGDNCLVLSQRLGEWCGHAPELEIDLALANIGLDLLGQARNFLSYAAELAGEGDEDTLAFTRDERQFSNLLLVEQPNGNFADTIARQYFIDAWHVALFTRLMESRDPQLAAISAKAIKEARYHLRFSRGWLERLGNGTDVSGQKMQQAINKLWRFTAELFDADEIDIALSEEGIAVDPRTLRAAWEAEVFAGINEATLNVPQEQAYRTGGKKGLHTEHLGPMLAEMQYLQRVLPGQQW", "soluble on expression in E. coli": "soluble"}
{"sequence": "DITGIPTGFTELDRMTAGFQRNDLIIVAARPSVGKTAFALNIAQNVATKTDESVAIFSLEMGAEQLVMRMLCAEGNINAQNLRTGNLTEEDWGKLTMAMGSLSNSGIYIDDTPGIRVSEIRAKCRRLKQESGLGMILIDYLQLIQGSGRSKDNRQQEVSEISRELKSIARELQVPVIALSQLSRGVEQRQDKRPMMSDI", "soluble on expression in E. coli": "not soluble"}
{"sequence": "MGSDKIHHHHHHMIVKEINPHFEDYVFNWEQTYQFLVGGYGSSKSYHTALKIVLKLLKEKRTALVIREVFDTHRDSTFALFQEVIEELGLTKAVASLSSPLQLRFHNGSRIMFKGMDNPAKLKSVHNISLIWIEECSEVKYEGFKELIGRLRHPELKLHMICTTNPVGTSNWTYRHFFRDERKKRFVLDDSELYEKRTIVKGDTYYHHSTANDNLFLPESYVKQLDGLKEYDPDLYRIARKGRFGVNGIRVLPQFEVLPHDQVKKCIAAISKPIFRTGMDFGFEESYNAVVRLAVDPEKKYLYIYWEYYQNKMTDDRTAEELREFIETQELIKADSAEPKSIQYFRQQGFRMVGARKFPGSRLQYTKKVKRFKKIFCSDRCENVIYELETLTYAKDKNGALIEDEFTIDPHTLSAIWYALDDYEVADMKETAHKRMRPNRERRRS", "soluble on expression in E. coli": "not soluble"}
{"sequence": "MEIPSYASNIQPYGSQSGTKIASENDNAKSVSLSGDNSRSVSRTDKLSEHFSEQVRARQQESAETAMAQAKQRQRLNEEQLAKMVEQMNEFVKSINKGLSFRLDRESGREVVTIYEASTGDIIRQIPEEEMLEVLRRLAREQDHRSGLLMAKV", "soluble on expression in E. coli": "not soluble"}
{"sequence": "MSLLNTYEPWKFAFSQEETDFNNLKEGAWGIIGVPFDSTTSYHPGSRFGPIVVREASYGFEKYNTIFNTQLDNIFYDFGDVNVVFGNCKKTCDIIEDTVNELSDLKIKPLTIGGEHSLTIGVLNSLTKKYDDLTVVHLDAHRDLADTFIGELYSHASVMKRVHEMGVKELVQIGIRSASKEEEDFVKNQSNITTFKNNDVFHHLDNIEYYLSIIDTPIYLSIDMDVFDPSIAPTVGNPTPNGIAYGHIEAMLQTLSLKNVVGMDVVETAGDRLGDITAVSASKIIYDFLSLLEGHHHHHH", "soluble on expression in E. coli": "soluble"}
{"sequence": "MGSDKIHHHHHHMNKKFLLTGASGFVGKHLYSINPSQFRCVVREDGERFPDAYKVNGINSKTDWTDSFLDIDCIIHLAGLAHSNNNRNDEYRETNFLGTLCLAQQASKSGVKRFVFVSSIGVNGNATLEKPFSIFDEPKPLNSYTNSKYDAEIGLKKIAAETGLEVVIVRPTLVYGPNAPGNFGLLTKLVKKLPVLPFGLANNKRDFIAVQNLADLLITCATHPNAAGHMFLASDMETVSIKQFTNAIADGLGKKVFQFPIPVSLMRLTGKLMRKSAMVEQLLGNLQVDSSNIKEVLDWTPPLTMKQAMTTLCDSGKSS", "soluble on expression in E. coli": "not soluble"}
{"sequence": "MKIALIGASGYVGSALLKEALSRGHHVTALVSRPERIAAQANLAAAKVDVQDSAQLAEQLKGFDAVLSAFSGHAQAEQFDYFVKGIRSIIAAAKAAQAPRLLVVGGAGSLEVAPGVQLVDTPEFPEQWKASALGAREALNLLRAETELNWTLLSPSAMLQPGQRTGQFRLGKDQLLVDAEGNSHISVEDYAVAMIDELEKGLEHHHHHH", "soluble on expression in E. coli": "not soluble"}
